Measurements as given in article PMC8134462, “Cross-reactive serum and memory B-cell responses to spike protein in SARS-CoV-2 and endemic coronavirus infection” (Nature Communications, 2021).

Key:
[1] = molecular target: T1, HCoV-229E spike protein, full-length, expressed on the HEK293T cell surface (HCoV-229E (NP_073551.1), UniProt P15423); test: flow cytometry on cells; settings: one partner purified
T1 construct: source: HEK293T, transfected (phCMV3), on the cell surface

[2] = molecular target: T2, HCoV-OC43 spike protein, full-length, expressed on the HEK293T cell surface (HCoV-OC43); test: flow cytometry on cells; settings: one partner purified
T2 construct: source: HEK293T, transfected (phCMV3), on the cell surface

[3] = molecular target: T3, HCoV-HKU1 spike protein, full-length, expressed on the HEK293T cell surface (HCoV-HKU1, isolate N1 (YP_173238.1), UniProt Q5MQD0); test: flow cytometry on cells; settings: one partner purified
T3 construct: also called HKU1-CoV S; source: HEK293T, transfected (phCMV3), on the cell surface

[4] = molecular target: T4, SARS-CoV-2 spike protein, full-length, expressed on the HEK293T cell surface (SARS-CoV-2, Wuhan-Hu-1 (MN908947), UniProt P0DTC2); test: flow cytometry on cells; settings: one partner purified
T4 construct: source: HEK293T, transfected (phCMV3), on the cell surface

[5] = molecular target: T5, HCoV-NL63 spike protein, full-length, expressed on the HEK293T cell surface (HCoV-NL63 (YP_003767.1), UniProt Q6Q1S2); test: flow cytometry on cells; settings: one partner purified
T5 construct: source: HEK293T, transfected (phCMV3), on the cell surface

[6] = molecular target: T6, SARS-CoV-2 RBD-SD1 (residue 320-591) (SARS-CoV-2, Wuhan-Hu-1 (MN908947), UniProt P0DTC2); test: BLI; settings: both partners purified
T6 construct: source: FreeStyle293F, transfected, purified (Ni-NTA, SEC)

[7] = molecular target: T7, SARS-CoV-2 receptor-binding domain-RBD (residue 320-527) (SARS-CoV-2, Wuhan-Hu-1 (MN908947), UniProt P0DTC2); test: BLI; settings: both partners purified
T7 construct: source: FreeStyle293F, transfected, purified (Ni-NTA, SEC)

[8] = molecular target: T8, SARS-CoV-2 N-terminal domain-NTD (residue 1-290) (SARS-CoV-2, Wuhan-Hu-1 (MN908947), UniProt P0DTC2); test: BLI; settings: both partners purified
T8 construct: source: FreeStyle293F, transfected, purified (Ni-NTA, SEC)

[9] = molecular target: T9, SARS-CoV-2 RBD-SD1-2 (residue 320-681) (SARS-CoV-2, Wuhan-Hu-1 (MN908947), UniProt P0DTC2); test: BLI; settings: both partners purified
T9 construct: source: FreeStyle293F, transfected, purified (Ni-NTA, SEC)

[10] = molecular target: T10, HCoV-HKU1 soluble S ectodomain protein (residue 1-1295), prefusion-stabilized, with T4 fibritin trimerization … (HCoV-HKU1, isolate N1 (YP_173238.1), UniProt Q5MQD0, A1071/L1072 replaced by proline residues); test: BLI; settings: both partners purified
T10 construct: also called HCoV-HKU1 S-protein; HKU1-CoV S protein; source: FreeStyle293F, transfected, purified (Ni-NTA or GNL column, SEC)

B1: mAb CC9.1 (antibody, V domains shown)
VH: EVQLVESGGGLVQPGRSLRLSCVAPGFTLGGYGMHWVRQAPGKGLEWVGLISYDGSVQKYGSSVKGRFTISKDNSKNTLYLEMNSLRADDTAVYFCVKGASLGDNWGQGTLVTVSS
VL: EIVMTQSPLSLPVTLGQPASISCRSSQSLVYSDGDTYMSWFHQRPGQSPRRLIYKVSNRDSGVPDRFSGSGSGTDFTLKISRVEAEDVGVYYCMQGTHWPYTFGPGTKVEIK
[1]
  binding result: no binding
[2]
  binding result: binds
[3]
  binding result: binds
[4]
  binding result: binds
[5]
  binding result: no binding
[6]
  binding result: no binding
[7]
  binding result: no binding
[8]
  binding result: no binding
[9]
  binding result: no binding

B2: second SARS-CoV-2/HCoV-HKU1 cross-reactive mAb from the CC40 donor (its name is not printed in the text) (antibody, V domains shown)
VH: EVQLVESGGGVVQPGRSLRLSCVASGFTFSNYGMHWVRQAPGKGLEWVAVMSYDGSVTYYGDSVRGRFTISRDNSKNTLYLQMSSLRTDDTGVYYCAKGQPLDDIWGLGTLVTVSS
VL: EIVMTQSPLSLPVSLGQSASISCRSSQSLVHTDGITYLSWFQQRPGQSPRRLLYKVSNRDSGVPDRFSGSGSGTDFTLKISRVEAEDVGVYYCLQGTYWPWTFGQGTKVEIK
notes: also called one of the two cross-reactive mAbs from the CC40 donor
[1]
  binding result: no binding
[2]
  binding result: binds
[3]
  binding result: binds
[4]
  binding result: binds
[5]
  binding result: no binding
[6]
  binding result: no binding
[7]
  binding result: no binding
[8]
  binding result: no binding
[9]
  binding result: no binding

B3: mAb CC9.2 (IgG) (antibody, V domains shown)
VH: EVQLVESGGGLVQPGRSLRLSCVAPGFTLGGYGMHWVRQAPGKGLEWVGLISYDGSVQKYGSSVKGRFTISKDNSKNTLYLEMNSLRADDTAVYFCVKGASLGDNWGQGTLVTVSS
VL: EIVMTQSPLSLPVTLGQPASISCRSSQSLVYSDGDTYMSWFHQRPGQSPRRLIYKVSNRDFGVPDRFSGSGSGTDFTLKISRVEAEDVGVYYCMQGTHWPYTFGPGTKVEIK
[1]
  binding result: no binding
[2]
  binding result: binds
[3]
  binding result: binds
[4]
  binding result: binds
[5]
  binding result: no binding
[6]
  binding result: no binding
[7]
  binding result: no binding
[8]
  binding result: no binding
[10]
  binding result: binds
[9]
  binding result: no binding

B4: Fab CC9.2 (Fab, V domains shown)
VH: EVQLVESGGGLVQPGRSLRLSCVAPGFTLGGYGMHWVRQAPGKGLEWVGLISYDGSVQKYGSSVKGRFTISKDNSKNTLYLEMNSLRADDTAVYFCVKGASLGDNWGQGTLVTVSS
VL: EIVMTQSPLSLPVTLGQPASISCRSSQSLVYSDGDTYMSWFHQRPGQSPRRLIYKVSNRDFGVPDRFSGSGSGTDFTLKISRVEAEDVGVYYCMQGTHWPYTFGPGTKVEIK
notes: also called CC9.2 Fab
[10]
  binding result: binds
